Kd, ED50 of pSTAT5a induction in human Tregs in whole blood (30 min, 37 °C); the receptor meant is the IL-2 receptor on the cells and ED50 of pSTAT5a induction in cynomolgus Tregs in whole blood (30 min, 37 °C); the receptor meant is the IL-2 receptor on the cells data for two substances are collected here from paper PMC4298360.

Assay [1] concerns the target murine IL-2Rβγ heterodimeric Fc fusion (knobs-into-holes), biotinylated (murine) (UniProt P16297). Put plainly: SPR; Biacore T200; biotinylated IL2Rβγ-Fc heterodimer immobilised on streptavidin chips; 2-fold dilution series (1.2–300 nM) of IgG-IL-2 injected 2 min, dissociation up to 10 min; global fit, 1:1 interaction model.
In assay [2] the target is human IL-2Rβγ heterodimeric Fc fusion (knobs-into-holes), biotinylated (human) (UniProt P14784). The assay is described as above.
Sequence of human IL-2Rβγ heterodimeric Fc fusion (knobs-into-holes), biotinylated (human) (P14784 27-240, chain 1 of 2): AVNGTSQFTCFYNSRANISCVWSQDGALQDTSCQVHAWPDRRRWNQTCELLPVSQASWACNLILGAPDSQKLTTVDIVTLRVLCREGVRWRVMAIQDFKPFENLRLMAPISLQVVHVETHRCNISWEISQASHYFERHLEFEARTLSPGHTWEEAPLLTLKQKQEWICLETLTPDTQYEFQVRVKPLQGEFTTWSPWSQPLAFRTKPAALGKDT
Sequence of human IL-2Rβγ heterodimeric Fc fusion (knobs-into-holes), biotinylated (human) (P31785 23-262, chain 2 of 2, further chain): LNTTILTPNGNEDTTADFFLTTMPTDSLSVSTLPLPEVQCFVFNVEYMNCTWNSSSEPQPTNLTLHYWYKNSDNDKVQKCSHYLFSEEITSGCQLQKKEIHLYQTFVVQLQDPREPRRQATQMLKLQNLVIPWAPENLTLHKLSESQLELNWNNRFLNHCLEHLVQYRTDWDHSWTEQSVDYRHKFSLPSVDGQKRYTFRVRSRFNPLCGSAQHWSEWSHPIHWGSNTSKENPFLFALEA
Assay [3] has as its target cynomolgus IL-2Rβγ heterodimeric Fc fusion (knobs-into-holes), biotinylated (cynomolgus) (UniProt Q38J85). Described as above.
In assay [4] the target is human IL-2Rβγ heterodimeric Fc fusion (knobs-into-holes), biotinylated (human) (UniProt P14784).
Assay [5] deals with cynomolgus IL-2Rβγ heterodimeric Fc fusion (knobs-into-holes), biotinylated (cynomolgus) (UniProt Q38J85).
Assay [6] addresses murine IL-2Rβγ heterodimeric Fc fusion (knobs-into-holes), biotinylated (murine) (UniProt P16297). Put plainly: SPR; Biacore T200; biotinylated IL2Rβγ-Fc heterodimer immobilised on streptavidin chips; 2-fold dilution series (1.2–300 nM) of IgG-(IL-2)2 injected 2 min, dissociation up to 10 min; global fit, 1:1 interaction model despite bivalent binding: apparent KD. On the technique in general: SPR reads the build-up and loss of mass on a sensor chip optically.

Assay [7] has as its target human IL-2Rβγ heterodimeric Fc fusion (knobs-into-holes), biotinylated (human) (UniProt P14784). Described as above.
For assay [8], the target named is cynomolgus IL-2Rβγ heterodimeric Fc fusion (knobs-into-holes), biotinylated (cynomolgus) (UniProt Q38J85). The description is as above.

pKd: −log10 of the molar value.

Sequence of IgG-(IL-2)2 (bivalent fusion of two wild-type human IL-2 to a non-targeted, effector-silent human IgG1) (P60568 21-153 limits assumed): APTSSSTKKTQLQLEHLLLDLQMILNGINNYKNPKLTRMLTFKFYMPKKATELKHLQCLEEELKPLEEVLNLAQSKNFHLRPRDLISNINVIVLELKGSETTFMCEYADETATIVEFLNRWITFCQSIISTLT
Sequence of IgG-IL-2 (monovalent fusion of wild-type human IL-2 to a non-targeted, effector-silent human IgG1) (P60568 21-153 limits assumed): as above
Sequence of murine IL-2Rβγ heterodimeric Fc fusion (knobs-into-holes), biotinylated (murine) (P16297 27-240, chain 1 of 2): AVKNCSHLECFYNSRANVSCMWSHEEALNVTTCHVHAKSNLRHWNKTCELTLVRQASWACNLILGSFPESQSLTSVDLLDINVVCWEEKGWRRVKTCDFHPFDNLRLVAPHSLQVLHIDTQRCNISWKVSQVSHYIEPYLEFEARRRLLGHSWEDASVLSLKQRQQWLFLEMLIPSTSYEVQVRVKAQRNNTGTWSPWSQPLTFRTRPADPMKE
Sequence of murine IL-2Rβγ heterodimeric Fc fusion (knobs-into-holes), biotinylated (murine) (P34902 23-263, chain 2 of 2, further chain): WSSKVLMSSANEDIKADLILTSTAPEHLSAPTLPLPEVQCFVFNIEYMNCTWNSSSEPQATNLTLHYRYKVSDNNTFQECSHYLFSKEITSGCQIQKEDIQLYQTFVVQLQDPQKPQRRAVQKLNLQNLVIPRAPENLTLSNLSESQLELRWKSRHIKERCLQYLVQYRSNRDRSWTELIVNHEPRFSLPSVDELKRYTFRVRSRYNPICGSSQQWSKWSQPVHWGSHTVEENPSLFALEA

Broadly, the pKd is −log10 of the Kd, conventionally taken in molar units. “IgG-IL-2 (monovalent fusion of wild-type human IL-2 to a non-targeted, effector-silent human IgG1) (from UniProt P60568 21-153)”: the pKd in assay [1] was 9.12; in assay [2], 10.40; in assay [3] it was 9.74.

As for “IgG-(IL-2)2 (bivalent fusion of two wild-type human IL-2 to a non-targeted, effector-silent human IgG1) (from UniProt P60568 21-153)”, the ED50 of pSTAT5a induction in human Tregs in whole blood (30 min, 37 °C); the receptor meant is the IL-2 receptor on the cells in assay [4] stood at 0.3 pM. Also, the ED50 of pSTAT5a induction in cynomolgus Tregs in whole blood (30 min, 37 °C); the receptor meant is the IL-2 receptor on the cells in assay [5] amounted to 0.1 pM. Moreover, the figures for the negative logarithm of the Kd (pKd) in assay [6], in assay [7] and in assay [8] were 10.40, 11.52 and 10.40, respectively.
